Here are results for three molecules from patent publication US11866760B2, “Microorganisms for the production of insect pheromones and related compounds” (Provivi, Inc., priority 2017, dated 2024).

Series [1] concerns the target T1, ALE1p (=LCA1p) (Saccharomyces cerevisiae, UniProt Q08548).
T1 sequence (Q08548 1-619): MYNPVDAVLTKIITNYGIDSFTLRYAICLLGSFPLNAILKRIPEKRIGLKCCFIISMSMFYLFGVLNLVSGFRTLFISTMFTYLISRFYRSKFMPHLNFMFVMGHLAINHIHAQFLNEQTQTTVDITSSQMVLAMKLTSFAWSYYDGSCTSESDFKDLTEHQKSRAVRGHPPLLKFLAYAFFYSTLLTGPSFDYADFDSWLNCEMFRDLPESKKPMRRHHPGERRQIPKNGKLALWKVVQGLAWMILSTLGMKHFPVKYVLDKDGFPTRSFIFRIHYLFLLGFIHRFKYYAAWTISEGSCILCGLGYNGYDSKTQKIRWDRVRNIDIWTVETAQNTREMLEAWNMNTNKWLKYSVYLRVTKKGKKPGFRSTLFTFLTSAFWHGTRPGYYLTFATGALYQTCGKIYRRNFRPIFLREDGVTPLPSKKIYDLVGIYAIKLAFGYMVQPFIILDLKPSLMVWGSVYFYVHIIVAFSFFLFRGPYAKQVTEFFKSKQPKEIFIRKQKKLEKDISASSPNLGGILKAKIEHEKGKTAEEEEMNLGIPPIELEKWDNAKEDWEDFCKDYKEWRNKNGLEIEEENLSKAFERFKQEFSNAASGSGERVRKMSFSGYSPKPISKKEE
The note with it: Chen Q et al. 2007; cited from earlier work.

Series [2] has as its system methyl palmitate. Kind of series: HaFAR mutant library cultivation in shake flasks. Particulars: shake flask experiments, 10 g/L methyl palmitate. Format: cell-based, Yarrowia lipolytica. The method, then:
In a first step a shake flask experiment of the respective strains was performed to analyze fatty alcohol and fatty acid formation over time. The best performing clone of the strains expressing HaFAR, HaFAR S195A and HaFAR S418A were tested. 10 mL YPD was inoculated from patches of individual clones and incubated for 24 h at 28° C., 250 rpm in a 125 mL shake flask. Next, 25 mL YPD were inoculated with 5 mL starter culture in 500 mL shake flasks and incubated for 24 h at 28° C., 250 rpm. The cells were harvested and the pellets were resuspended in 15 mL S2 media and 10 g/L methyl palmitate was added. OD600 was measured and subsequently methyl palmitate was added. […] 4×0.5 mL samples were taken every 24 h and stored at −20° C. until analyzed according to a previously established standard protocol (FIG. 47 and FIG. 48). To improve sampling and reduce the standard deviation, samples were transferred directly into GC crimp vials and stored until analyzed.
Thus, sampling was reduced to 20 h. In previous 24 well plate bioconversion experiments the measured biomass was ˜2× higher compared to the shake flask experiment. […] The cells were harvested and the pellets were resuspended in 10 mL S2 media and 10 g/L, OD600 was measured and subsequently methyl palmitate was added. […] 4×0.5 mL samples were taken and analyzed according to a previously established standard protocol (FIG. 49). […]

The subject of series [3] is methyl palmitate. Kind of series: HaFAR mutant library cultivation in 24 well plates in Y. lipolytica SPV603. It is filed as cell-based, Yarrowia lipolytica. The note with it: second FAR copy in SPV603, 24 well plates. The method, then:
Four individual clones of positive integrants were tested. Cultivation was performed in 24 well plates. Briefly, 2 mL YPD was inoculated from patches of individual clones and incubated for 24 h at 28° C., 1000 rpm. After 24 h OD600 was measured and the cells were centrifuged at 1000 rpm (Table 23). The cell pellets were resuspended in 1 mL S2 media and 10 g/L methyl palmitate was added. The cells were incubated for 18 h at 28° C., 1000 rpm. Cultivations were stored at −20° C. until analyzed. Extraction and analysis was performed according to previously established standard protocols using GC-FID.
In a first round four individual isolate from each transformation was tested. Cultivation was performed in 24 well plates. 2 mL YPD was inoculated from patches of individual clones and incubated for 24 h at 28° C., 1000 rpm. After 24 h OD600 was measured and the cells were centrifuged at 1000 rpm. The cell pellets were resuspended in 1 mL S2 media and 10 g/L methyl palmitate was added. The cells were incubated for 24 h at 28° C., 1000 rpm. Cultivations were stored at −20° C. until analyzed. Next, four clones of the best performing positive integrant were tested. Cultivation was performed in 24 well plates. 2 mL YPD was inoculated from patches of individual clones and incubated for ˜28 h at 28° C., 1000 rpm. After 28 h OD600 was measured and the cells were centrifuged at 1000 rpm. The cell pellets were resuspended in 1 mL S2 media and 10 g/L methyl palmitate was added. The cells were incubated for 18 h at 28° C., 1000 rpm. Cultivations were stored at −20° C. until analyzed.
Cell pellets were resuspended with 500 μL 5% NaOH (in methanol) then heated for 1 hour at 85° C. Samples were cooled down and then acidified by adding 400 μL 5N HCl. Next, 500 μL chloroform (containing 1 mM C17:0 heptadecanoate internal standard) were added to samples. Samples were mixed vigorously then spun down for 2 minutes at 13,000 RPM using a table top centrifuge. 450 μL chloroform were transferred to a new vial then evaporated at 85° C. for ˜15 minutes. Samples were then resuspended in 50 μL BSTFA (and were now ready for GC analysis). After analysis of the fatty alcohols samples were diluted ˜1:10 and rerun on the GC to improve peak separation of the fatty acid peaks.
All quantifications were based on the concentration of the internal standard. The concentration of the internal standard C17ME is 1 mM. The final concentration of fatty alcohols as well as fatty acids were calculated based on the effective carbon number compared to the internal standard.

As for `[Zn+2]` [Zn2+], the inhibitory concentration result in series [1] is listed as “above 0.1 mM”.

B1: HaFAR (S418A) (protein)
chain: MVVLTSKETKPSVAEFYAGKSVFITGGTGFLGKVFIEKLLYSCPDIENIYMLIREKKGLSVSERIKQFLDDPLFTRLKDKRPADLEKIVLIPGDITAPDLGINSENEKMLIEKVSVIIHSAATVKFNEPLPTAWKINVEGTRMMLALSRRMKRIEVFIHISTAYTNTNREVVDEILYPAPADIDQVHQYVKDGISEEDTEKILNGRPNTYTFTKALTEHLVAENQAYVPTIIVRPSVVAAIKDEPLKGWLGNWFGATGLTVFTAKGLNRVIYGHSSYIVDLIPVDYVANLVIAAGAKSSKSTELKVYNCCSSSCNPVTIGTLMSMFADDAIKQKSYAMPLPGWYIFTKYKWLVLLLTFLFQVIPAYVTDLSRHLIGKSPRYIKLQSLVNQTRSSIDFFTNHSWVMKADRVRELYASLAPADKYLFPCDPTDINWTHYIQDYCWGVRHFLEKKSYE
B1 returned a Z11-16OH titer in series [2] of about 80 mg/L. Besides, in series [3], the “Z11-16OH titers compared to the HaFAR double copy strain” value was “distinct increase of Z11-16OH titers”.

B2: HaFAR (S195A) (protein)
chain: MVVLTSKETKPSVAEFYAGKSVFITGGTGFLGKVFIEKLLYSCPDIENIYMLIREKKGLSVSERIKQFLDDPLFTRLKDKRPADLEKIVLIPGDITAPDLGINSENEKMLIEKVSVIIHSAATVKFNEPLPTAWKINVEGTRMMLALSRRMKRIEVFIHISTAYTNTNREVVDEILYPAPADIDQVHQYVKDGIAEEDTEKILNGRPNTYTFTKALTEHLVAENQAYVPTIIVRPSVVAAIKDEPLKGWLGNWFGATGLTVFTAKGLNRVIYGHSSYIVDLIPVDYVANLVIAAGAKSSKSTELKVYNCCSSSCNPVTIGTLMSMFADDAIKQKSYAMPLPGWYIFTKYKWLVLLLTFLFQVIPAYVTDLSRHLIGKSPRYIKLQSLVNQTRSSIDFFTNHSWVMKADRVRELYASLSPADKYLFPCDPTDINWTHYIQDYCWGVRHFLEKKSYE
B2 returned a Z11-16OH titer in series [2] of about 120 mg/L. Also, the “Z11-16OH titers compared to the HaFAR double copy strain” value in series [3] was “distinct increase of Z11-16OH titers”.
